In patent publication US20160122418A1 one finds Estimated half-maximal effective antibody concentration (ng/mL), plaque neutralization on Vero cells and % binding of RSV to the coating mAb relative to control IgG data, which are given here for two substances.

Where only a bound is given, the exact number is not on record here.

The target of experiment [1] is F protein of RSV reference strain RSV-B (ATCC VR 1580) (RSV-B (ATCC VR 1580)) (UniProt P13843). Put plainly: cell-based or functional assay.
Chain of F protein of RSV reference strain RSV-B (ATCC VR 1580) (RSV-B (ATCC VR 1580)) (P13843 26-574): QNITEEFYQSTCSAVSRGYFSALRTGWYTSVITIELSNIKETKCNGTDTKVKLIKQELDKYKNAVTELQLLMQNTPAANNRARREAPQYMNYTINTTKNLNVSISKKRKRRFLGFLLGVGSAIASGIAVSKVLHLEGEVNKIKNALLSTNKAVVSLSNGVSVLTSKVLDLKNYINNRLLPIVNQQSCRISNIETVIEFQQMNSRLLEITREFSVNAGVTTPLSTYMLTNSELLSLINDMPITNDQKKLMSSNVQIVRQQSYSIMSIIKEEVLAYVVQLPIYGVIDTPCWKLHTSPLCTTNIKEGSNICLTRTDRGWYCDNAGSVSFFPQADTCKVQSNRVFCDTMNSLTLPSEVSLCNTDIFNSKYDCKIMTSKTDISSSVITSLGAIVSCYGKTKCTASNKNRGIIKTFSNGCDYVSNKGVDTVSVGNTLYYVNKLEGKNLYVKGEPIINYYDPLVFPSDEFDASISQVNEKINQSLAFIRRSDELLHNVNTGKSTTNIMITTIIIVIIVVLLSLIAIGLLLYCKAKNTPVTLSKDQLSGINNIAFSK
For experiment [2], the target named is F protein of RSV reference strain RSV-A Long (ATCC VR-26) (RSV-A Long (ATCC VR-26)) (UniProt P12568). Put plainly: cell-based or functional assay.
Chain of F protein of RSV reference strain RSV-A Long (ATCC VR-26) (RSV-A Long (ATCC VR-26)) (P12568 26-574): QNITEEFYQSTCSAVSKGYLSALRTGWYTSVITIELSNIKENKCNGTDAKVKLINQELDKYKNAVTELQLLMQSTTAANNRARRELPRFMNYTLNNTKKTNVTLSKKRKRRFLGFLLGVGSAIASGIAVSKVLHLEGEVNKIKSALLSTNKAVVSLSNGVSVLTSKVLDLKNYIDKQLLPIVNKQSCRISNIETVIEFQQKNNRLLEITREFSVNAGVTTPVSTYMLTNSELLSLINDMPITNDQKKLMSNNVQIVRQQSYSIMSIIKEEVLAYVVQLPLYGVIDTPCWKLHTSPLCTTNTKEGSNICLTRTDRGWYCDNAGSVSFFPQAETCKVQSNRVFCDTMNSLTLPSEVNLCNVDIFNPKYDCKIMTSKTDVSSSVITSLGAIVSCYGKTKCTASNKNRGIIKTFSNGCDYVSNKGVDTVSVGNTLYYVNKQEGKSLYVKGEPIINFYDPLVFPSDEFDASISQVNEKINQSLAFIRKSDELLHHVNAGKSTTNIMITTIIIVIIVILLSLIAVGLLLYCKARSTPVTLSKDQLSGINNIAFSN
Experiment [3] concerns the target F protein on intact RSV particles (Example 10, strain or isolate not stated) (RSV, strain not stated). As to the kind of experiment: competition ELISA; RSV particles pre-incubated with control mAb at 20 µg/mL (the reference); competitor (coating mAb): palivizumab. In general terms: An ELISA detects its analyte on a solid surface through an enzyme-linked reagent.
Experiment [4] has the same target. As to the kind of experiment: competition ELISA; RSV particles pre-incubated with control mAb at 20 µg/mL (the reference); competitor (coating mAb): AR201.

As to palivizumab (antibody), the figures for the Estimated half-maximal effective antibody concentration (ng/mL), plaque neutralization on Vero cells in experiment [1] and in experiment [2] were 200 ng/mL and 100 ng/mL, respectively.

For “unrelated fully human monoclonal IgG1 antibody (control)”, the % binding of RSV to the coating mAb relative to control IgG in experiment [3] and in experiment [4] was 100% throughout. Besides, the Estimated half-maximal effective antibody concentration (ng/mL), plaque neutralization on Vero cells in experiment [1] and in experiment [2] was more than 1000 ng/mL each time.
